Data on one molecule can be found in patent US20260001954A1 (Genentech, published 2026).

Experiment [1] deals with CD3 on T cells of human peripheral blood mononuclear cells (PBMCs) (human, UniProt P07766 23-207). In words: cell-based or functional assay.
For experiment [2], the target named is T1, CD3 (cluster of differentiation 3) (UniProt P07766 23-126).
T1 construct: also called CD3 antigen
Nature of the experiment: method not stated; monovalent KD used to calculate CD3 receptor occupancy; monovalent KD, used for CD3 receptor occupancy.

T1 sequence (P07766 23-126): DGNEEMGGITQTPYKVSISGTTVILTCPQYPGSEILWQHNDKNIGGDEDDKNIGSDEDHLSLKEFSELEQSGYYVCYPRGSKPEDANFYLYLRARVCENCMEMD
Sequence of CD3 on T cells of human peripheral blood mononuclear cells (PBMCs) (P07766 23-207): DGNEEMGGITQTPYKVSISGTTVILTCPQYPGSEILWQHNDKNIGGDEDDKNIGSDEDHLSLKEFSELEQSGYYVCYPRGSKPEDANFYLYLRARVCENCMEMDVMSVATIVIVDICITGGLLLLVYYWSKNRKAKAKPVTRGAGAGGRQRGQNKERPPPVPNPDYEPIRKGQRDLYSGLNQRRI

B1: cevostamab (bispecific antibody, human IgG1, kappa, N297G)
heavy 1: not shown
light 1: DIQMTQSPSSLSASVGDRVTITCKASQDVRNLVVWFQQKPGKAPKLLIYSGSYRYSGVPSRFSGSGSGTDFTLTISSLQPEDFATYYCQQHYSPPYTFGQGTKVEIKRTVAAPSVFIFPPSDEQLKSGTASVVCLLNNFYPREAKVQWKVDNALQSGNSQESVTEQDSKDSTYSLSSTLTLSKADYEKHKVYACEVTHQGLSSPVTKSFNRGEC
heavy 2: EVQLVQSGAEVKKPGASVKVSCKASGFTFTSYYIHWVRQAPGQGLEWIGWIYPENDNTKYNEKFKDRVTITADTSTSTAYLELSSLRSEDTAVYYCARDGYSRYYFDYWGQGTLVTVSSASTKGPSVFPLAPSSKSTSGGTAALGCLVKDYFPEPVTVSWNSGALTSGVHTFPAVLQSSGLYSLSSVVTVPSSSLGTQTYICNVNHKPSNTKVDKKVEPKSCDKTHTCPPCPAPELLGGPSVFLFPPKPKDTLMISRTPEVTCVVVDVSHEDPEVKFNWYVDGVEVHNAKTKPREEQYGSTYRVVSVLTVLHQDWLNGKEYKCKVSNKALPAPIEKTISKAKGQPREPQVYTLPPSREEMTKNQVSLSCAVKGFYPSDIAVEWESNGQPENNYKTTPPVLDSDGSFFLVSKLTVDKSRWQQGNVFSCSVMHEALHNHYTQKSLSLSPGK
light 2: not shown
notes: Humanized full-length non-glycosylated IgG1 kappa, knobs-into-holes; also called BFCR4350A; RO7187797
Take B1: the “50% effective concentration (EC50) for T-cell activation in the in vitro human PBMC: MOLP-2 co-culture” value in experiment [1] came to 58.8 ng/mL. Also, in experiment [2], the Kd – broadly, the concentration at which binding is half-saturated – was 2.6 nM.
